Laboratory results reported in the supplement of paper PMC9732359.
± gives the uncertainty stated by the source.

Test: protein stability index of a GFP-peptide fusion (yeast GPS) (PSI 1-4); higher = more stable; sorted into four equal gates, so the index is relative within each strain
Conditions: pdr5∆
Summary of the method: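 The protein stability index of a peptide was calculated by multiplying its read frequency in each gate by that gate's number and adding the products. The peptides were tiled 17-residue stretches of yeast proteins, fused downstream of GFP on a Cherry-expressing plasmid and carried in yeast as a pooled library. Mid-log cultures in leucine-free medium were sorted into four equal gates by GFP/Cherry ratio, and each gate's plasmids were PCR-amplified and Illumina-sequenced.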

| Sequence | protein stability index |
| --- | --- |
| SIVGVDLSSAASASGAA [FAS2] | 1.53 ± 0.11 |
| SIYDKWTDPNLKSSLAD [RPN1] | 2.96 ± 0.067 |
| SKAFKESSDFGAIILTK [SRP54] | 1.57 ± 0.056 |
| SKAPAEKKPAAKKTSTS [HTB1] | 3.01 ± 0.069 |
| SKDVSRLLSALGPRGVS [SRP21] | 2.54 ± 0.28 |
| SKEKANFLETIASTEKP [SIR4] | 2.28 ± 0.055 |
| SKEQIHGSIIILGMLSL [YCS4] | 2.32 ± 0.05 |
| SKIIVFPRNGKAPEAEQ [RPL13A] | 3.09 ± 0.12 |
| SKILSQAPSELELQVAK [RPS7B] | 3.07 ± 0.047 |
| SKINELSYYVEETNVDI [SMC4] | 2.98 ± 0.15 |
| SKKGKPTVNKKPKNKKK [SRP72] | 2.68 ± 0.11 |
| SKLNELKKELKLLAKEL [SMC2] | 2.9 ± 0.12 |
| SKNAERKWAARAASAKI [RPS8A] | 3.212 ± 0.028 |
| SKNTAVSKVQKRKVLEL [SRP72] | 2.1 ± 0.16 |
| SKQPNSAIRKCVRVQLI [RPS23A] | 2.77 ± 0.064 |
| SKRLPLRFPEHTSSGSV [BRR2] | 2.97 ± 0.083 |
| SKRPQLGEIPNPMKKHK [SIR4] | 2.53 ± 0.059 |
| SKSAFSFGTANTNGTNA [YOR098C/NUP1] | 3.08 ± 0.088 |
| SKVIIKFLQVMQKHGYI [RPS22A] | 1.84 ± 0.038 |
| SKVSKQQAKGAFQKVAA [RPL24B] | 2.97 ± 0.043 |
| SLDAREANFDLINIDTS [RPC40] | 3.22 ± 0.066 |
| SLDNKTLDDLVTKWTNQ [YJL041W/NSP1] | 3.07 ± 0.069 |
| SLEALIDLCHDFPHLTP [YCS4] | 2.35 ± 0.036 |
| SLEDPQVRKKQIETINF [YDL116W/NUP84] | 1.82 ± 0.088 |

| Sequence | protein stability index |
| --- | --- |
| SLEEIIAEGQKKFATVP [RPP2B] | 2.89 ± 0.058 |
| SLGSSSTTASGTTATGT [YGR119C/NUP57] | 3.31 ± 0.076 |
| SLHPLFEQFEKFYEEKL [RPN9] | 2.9 ± 0.16 |
| SLIRNNLHAEGWPKLQL [ECM29] | 1.25 ± 0.081 |
| SLKALASKYNCDKSVCR [RPL40A] | 2.97 ± 0.089 |
| SLLESGSEILGDLKLQV [RPO21] | 3.58 ± 0.14 |
| SLLLKNYLNDMHDSNLQ [SKP1] | 2.48 ± 0.05 |
| SLMDTLITPAVRNTAPN [YCG1] | 1.73 ± 0.082 |
| SLMSSQNKLFYITNADD [SIR3] | 2.02 ± 0.12 |
| SLNLQYVNYEISTAKAW [YML103C/NUP188] | 2.93 ± 0.082 |
| SLNLTDDVISNAGTNDN [MCD1] | 2.97 ± 0.057 |
| SLNSMTNAKLPNVDLVT [RGR1] | 2.74 ± 0.064 |
| SLQNNLQNNINNSNNNN [SNF11] | 3.27 ± 0.099 |
| SLRRIRDEMSKAELPQW [MED8] | 2.36 ± 0.055 |
| SLSDELNLDEIVACELI [YJL039C/NUP192] | 2.53 ± 0.1 |
| SLTYKKISLRDICLKLN [RPN3] | 2.17 ± 0.047 |
| SLYQVDPSGSYFPWKAT [PRE8] | 2.66 ± 0.11 |
| SLYTNTSRKALEEVSLK [RPL3] | 2.38 ± 0.13 |
| SLYTSREPRVVSALQML [PUP1] | 2.86 ± 0.065 |
| SMDVDDKNSGVKSEVDV [ITC1] | 1.64 ± 0.039 |
| SMILIQQTEKLNPQVAD [RPN2] | 1.67 ± 0.044 |
| SMRVKPSASLKLHHDLK [YMR129W/POM152] | 2.98 ± 0.064 |
| SMSGRISAKDMGQGLCN [BRR2] | 3.03 ± 0.084 |
| SMSLQSKNLGEINTALN [SWI1] | 2.9 ± 0.1 |

| Sequence | protein stability index |
| --- | --- |
| SMTATADVLAMAKVEVN [RIP1] | 2.4 ± 0.11 |
| SNDSQSHFDYNTLEFII [YCG1] | 2.78 ± 0.19 |
| SNGIFYGPSFTKRESLN [SIR2] | 2.83 ± 0.045 |
| SNLQRAQNVPMNIIQQQ [GAL11] | 2.55 ± 0.047 |
| SNTVNANNYSSNIGNNS [YDL088C/ASM4] | 3.39 ± 0.14 |
| SPGSPAYSPKQDEQKHN [RPO21] | 3.15 ± 0.11 |
| SPPCYIIDHIPGHSLLL [SNF5] | 2.54 ± 0.057 |
| SPPPQTHQSPPPPPQQS [SNF5] | 2.72 ± 0.029 |
| SPQQFLRAHTDDSRNPD [PRE2] | 3.03 ± 0.069 |
| SPSEFVDVAIPCNNRGK [RPS0A] | 1.97 ± 0.065 |
| SPSTSANVPSTATTGKR [RPN4] | 2.2 ± 0.1 |
| SPVRSDSADVPAFSNSN [YMR153W/NUP53] | 3.07 ± 0.096 |
| SQISPEKQTPNKKDKKK [RPN1] | 2.9 ± 0.1 |
| SQLAQVAAFVNNYPNVE [BRR2] | 2.63 ± 0.068 |
| SQLLLERLMISSDAFEV [RET1] | 2.4 ± 0.044 |
| SQNDGFVIIRGSQILSG [RPO31] | 3.13 ± 0.17 |
| SQPTNSTTTSLHVPNLQ [SMC4] | 2.4 ± 0.035 |
| SQTTLVQFGLNEETFTV [ARP9] | 2.92 ± 0.072 |
| SRGGVTQVRVEFLEDTS [RPS28A] | 3.15 ± 0.058 |
| SRGLFEKKLMQDNKQLY [YDL116W/NUP84] | 3.06 ± 0.09 |
| SRMRLIRQDVNLGRAVF [PRP8] | 2.31 ± 0.061 |
| SRMTVGKMIELISGKAG [RET1] | 2.98 ± 0.15 |
| SRNKALELNLSVLHSWV [YJL039C/NUP192] | 2.5 ± 0.14 |
| SRPDILSKIKFPESIWK [YCG1] | 2.04 ± 0.037 |

| Sequence | protein stability index |
| --- | --- |
| SSAHLIRINDEPILGQI [YML103C/NUP188] | 2.9 ± 0.077 |
| SSASPSALTSPTDSSKI [SIR3] | 3.08 ± 0.055 |
| SSDELKVIEEQLKHTKL [SMC4] | 3.3 ± 0.077 |
| SSEFVSQDTKVICSVTG [RRP46] | 2.37 ± 0.056 |
| SSEGFYSKIKHLGLDDP [SIR2] | 2.72 ± 0.14 |
| SSFNFNKNLPFVWLSSE [SWI1] | 2.32 ± 0.057 |
| SSFTFGSTTIEKKNDEN [YLR335W/NUP2] | 2.49 ± 0.094 |
| SSGQDKKKKKGSNQKPK [RPT2] | 2.92 ± 0.28 |
| SSIDKKSSILTVLQKNS [YML103C/NUP188] | 2.42 ± 0.083 |
| SSIVAIDWASPEYGRII [YGL100W/SEH1] | 3.16 ± 0.13 |
| SSLNLEDTPANDSSATR [RPB8] | 2.85 ± 0.065 |
| SSNKDLEDEKMKFQESL [SMC4] | 2.08 ± 0.26 |
| SSNPLGITGNLDRIPMH [COB] | 2.52 ± 0.077 |
| SSPLGFEETKLSTTPTK [SIR4] | 2.71 ± 0.063 |
| SSPSHIELVVTEKEEAV [RPL17A] | 2.74 ± 0.045 |
| SSPYAAMLAAQDVAAKC [RPS14B] | 1.42 ± 0.055 |
| SSSPLAMSETLSKVSLL [PRE8] | 2.83 ± 0.084 |
| SSVEMLLDVVKGTEASN [YDL116W/NUP84] | 3.1 ± 0.091 |
| STAAAPIAAPKKPRKPR [PGD1] | 3.11 ± 0.076 |
| STEETTANTGTIGKRRT [TAF14] | 3.27 ± 0.1 |
| STELNNKQYELFMKSLI [SWI1] | 2.94 ± 0.058 |
| STEYMMQFAKSKTVKVL [RPN6] | 1.2 ± 0.073 |
| STGAADGGYNAQLAKAK [SMC2] | 3.47 ± 0.11 |
| STIDANFADKYDEVKKH [RPL8A] | 3.08 ± 0.11 |
